Laboratory results taken from US20170327535A1.

Molecular target: aTNFa-Fab (Fab fragment of Infliximab, Remicade)
Assay: dynamic binding capacity on a 1 mL-gel column, 1 mg/mL aTNFa-Fab at […], 55% breakthrough

55% DBC: 48.6 mg/mL/gel
B1: LB5t-Wild.4d (four connected B5 domains of PpL312), immobilized on agarose carrier (protein)
chain: KEETPETPETDSEEQVTIKENIYFEDGTVQTATFKGTFAEATAEAYRYADLLSKEHGKYTADLEDGGYTINIRFAGKEKTPEEPKEQVTIKENIYFEDGTVQTATFKGTFAEATAEAYRYADLLSKEHGKYTADLEDGGYTINIRFAGKEKTPEEPKEQVTIKENIYFEDGTVQTATFKGTFAEATAEAYRYADLLSKEHGKYTADLEDGGYTINIRFAGKEKTPEEPKEQVTIKENIYFEDGTVQTATFKGTFAEATAEAYRYADLLSKEHGKYTADLEDGGYTINIRFAGKKVDEKPEEC
modifications: coupled to maleimide-activated (EMCH) NHS Activated Sepharose 4 Fast Flow through a reactive amino acid residue
